Results from the nanobody polyreactivity screen of Harvey et al. (2022).

Test: yeast display, Sf9 membrane polyspecificity reagent, FACS + sequencing; frameworks hold sequencing errors
In short: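 A synthetic nanobody library was expressed on Saccharomyces cerevisiae BJ5465 by galactose induction for 36–48 hours. The library was stained for 1 hour at 4 °C with 10% biotinylated, detergent-solubilized Sf9 membrane reagent and enriched with streptavidin microbeads before FACS. Low and high (top ~1%) gates were set on anti-HA fluorescence for expression and streptavidin fluorescence for reagent binding, and each polyreactivity label reflects the gate of origin.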

Sequence	polyreactivity (PSR sort gate)
QVQLVESGGGLVQAGGSLRLICAASGRTFVPYAMGWYRQAPGKERELVAAISQSGGRTYYTDSVKGRFTISRDNAKNTVYLQMNSLKPEDTAVYYCAKRYIYRYVWGGGDYWGQGTQVTVSS	high polyreactivity
QVQLVESGGGLVQAGVSLRLSCAASGRIFPYNAMGWDRQAPGKERELVAAIDWSGGRTYYADSVKGRFTISRDNAKNTDYLQMNSLKPEDTALYYCAAAYGGRLRYTAGYYWGQGTQVTVSS	high polyreactivity
QVQLVESGGGLVQAGGSLRLSCAASGITFDYYGMGWYRQAPGKEGELVASITSGGSTNYADSVNGRFTISRDNAKNTVYLQMNSLKPEDTAVYYCNAEFWEVSPDRRDYDYWGQGTQVTVSS	low polyreactivity
QVQHVESGGGLVQAGGSLRLSCAASGSIFNRNAMGWYRQAPGKERELVAAITRRGGSTYYADSVKVRFTISRDNAMNTVYLQMNSLKPEDTAVYYCAAATRKTEYDYWGQGSQVTVSS	high polyreactivity
QVQLVESGGGLVQAGGSLRLSCAASGRIFDRYAMGWYREAPGKERELVAAISGSGGRTYYADSVKGRFTISRDNAKNTVYLQMNSLKPEDTAVYYCAVKFSLYGQGYPKGDYWGQGTQVTVSS	high polyreactivity
HVQLVETVGGLVQAGGSLRLSCAASGSNFDPNAMGWYRQAPVKERELVAAISWSGGSTYYADSVKGRFTISRDNAKNNVYLQMHSLKPEDTAVYYCNAQFYDSYSYTNDYWGQGTQVTVSS	low polyreactivity
QVQLVESGGGLVQAGGSLRLNCAASGRIFDVNAMGWYRQAPGKERELVAAITYSDGSTYYADSLKGRFTISRDTAKNTVYLQMNSLKPEDTAVYYCAATHEPVTPQPYGYWGQGTQVTVSS	low polyreactivity
QVQLVESGGGLVQAGGSLRLSCAASGRIFRGNAMGWYRQVPGKERELVAAISSGTRTTYADSVKGRFTISRDNAKNTVYLQMNSLKPEDTAVYYCAAYNSYLGYPYYYWGQGTQVTVSS	high polyreactivity
QVQLVESGGGLVQAGGSLRLSCAASGSTFDYNAMGWYRQAPGKERELVAAISSGGRTYYADSVKGRFTISRDNAKNTVYLQMNSLKPEDTAVYYCAKARTLRYDSWGQGTQVTVSS	low polyreactivity
QVQLVESGGGLVQAGGSLRLSCAASGSIFYSYAMGWYRQAPGKERELVADITSSGGSTYYADSVKGRFTISRDNAKNTVYFQMNSLKPEDTAVYYCAASSPAFYGMRYNYWGHGTQVTVSS	low polyreactivity
QVQLVESGGGLVQAGGSLRLICAASGSTSQNKAMGWYRPAPGKERELVAAITWSGDSTYYADSVKGRFTISRDNAKNTVYIQMNSLKPEDSAVYYCAAVSRFFSTYLYDYWGEGTQVTVSS	low polyreactivity
QVQLVESGGGLVQAGGSLRLSCAASGYILTHYAMGWYRQAPGKERELVAAITRVGNTNYADSVKGRFTISRDNAKNTVYLQMNSLKPEDTAVYYCAVTYNGDSSWPGDYWGQGTQVTVSS	low polyreactivity
QVQLVDSGGGLVQAGGSLRLSCAASGITFYRYTMGWYRQGPGKERELVATITSGASTSYADSVKGRFTISRDNAKNTVYLQMNCLKPEDTAVYYCAARRTRVTGRYSVYAFDYWGQGTQVTVSS	low polyreactivity
QVQLVESGGGLVQAGGSLSLSCAASGSIFPRYTMGSYRQAPGKERELVAAISRSGGSTYYADSVKGRFTISRDNAKNTVYLQMNSLKPADTAVYYCDKSRPSKYDYWGQGTQVTVSS	high polyreactivity
QVQLVESGGGLVQAGGSLRLSCAASGSTFKRYARGWYRQAPGKEREFVAGISSRGSRTYYADSVKGRFTISRDNAKNTVYLQMNSLKPEDTAVYYCAVSGNHVSPPYGYWGQGTQVTVSS	high polyreactivity
QVQLVESGGGLVQAGGSLRLSCAASGSIIWLYAMGWYRQAPGKERELVAAISSGGSTYYADSVKGRFTISRDNAKNTVYLQMNSLKPEDTAVYYCAADYWSQSDWWDLTEYEYWGLGTQVTVSS	high polyreactivity

Sequence	polyreactivity (PSR sort gate)
QVQLVESGGGLVLAGGSLRLSCAASGRIFAVYAMGWYRQAPGQERELVAAIRARGGSTYYADSVKGRFTISRDNAKNTVDLQMNSLKPEDTPDYYCTARTSYSRTYRYYYWGQGTQVTVSS	high polyreactivity
QVQLVESGGGLVQAGGSHGLSCAASGRTSEKNPMGWYRQAPGIERELVAGISWRGGSTYYADSVKGRFTISRDNAKNTVYLQMNSLKPEDTAFYYCARSGAFSGLDDSWGQGTQVTVSS	low polyreactivity
QVQHVESGGGLVQAGGSLRLSCAASGSIFSYYAMGWYRQPPGKERELVATISSGDSTYYADSVKGRFTISRDNAKKTVYLQMNSLKPEDTAVYYCARKPRIRYYPAPYDYWGQGTQVTVSS	low polyreactivity
QVQLVESGGGLVQAGGRLRLSCAASGSTVRYYAMGGYRQAPVKERELVAAITSGGRTYYADSVKGRFTISRDNAKNTVYLQMNSLKPEDTAVYYCNARRYGSGMDYWGQGTQVTVSS	low polyreactivity
QVQLVESGGGLVQAGGSLRLSCAASGRILDGYAMGWYRQATGKERELVAAISRTGGGTYYADSVKGRFTISRDNSKNTVFLQMISLKPEDTAVYYCAKRRYYITLQADFDYWGQGTQVTVSS	low polyreactivity
QVQLVESGGGLVQAGGSLRLSCAASGSIFRPNDMGWYRQAPGKERELVAAISTGGSTSYADSVKGRFTISRDNAKNTVYLQMNSLKPEDTAVYYCAAVYYLTDWYGVWYSFDYWGQGTQVTVSS	low polyreactivity
QVQLVESGGGLVQAGGSLRLSCAASGSIFKPYAMGWYRQAPGKERELVAVISSGGSTNYADSVKGRFTISRDNAKNTVYLQMNSLKPEDTAVYYCAAEDQYGYDYWGQGTQVTVSS	high polyreactivity
QVHLVESGGGLVQAGGSLRLSCAASGFPFADNAMGWNRQAPGKERELVAAISRRGGSTYYADSVKGRFTISRDNAKNTVYLQMNSLKAEDTAVYYCAALGNRYPYYYYYGSYYPVEYWGQGTQVTVSS	high polyreactivity
QVQLVESGGGLVQAGGSLRLSCAASGRIFSYNAMGWYRQAPGKERELVAASTFSGGGTYYADSVKGRYTISRDNAKNPVYLQMNSLKPEDTAVYYCNNLSYGYSTYGYWGQGTQVTVSS	low polyreactivity
QVQLVESGGGLVQAGGSLRLSCAASGSTFGNNAMGWYRQAPGKERELVATIDDTTVSTNYADSVKGRFTISRDNAKNSVYLQMNSLKPEDTAVYYCAADDVDGSPYDYWGQGTQVTVSS	low polyreactivity
QVQLVESGGGLVQAGGSLRLSCAASGFIFRKYAMGWFRQAPGKERELVAAISRGGGSTYYADSVKGRFTISRDNAKNTVYLQMNSLKPEDTAVYYCAVGIVQRDSRYYYWGQGTQVTVSS	high polyreactivity
QVQIVESGGGLVQAGGSLRLSCAASGSTFDDYVMGWYRQAPGKEREFVAAISTNGGSTYYADSVKGRFTISRDNAKNTVYLQMNSLKPEDTAVYYCAAESQDFYAILGLYDYWGQGTQVTVSS	low polyreactivity
QVQLVESGGGLVQAGGSLRLSCAASGSIYVLYAMGWYRQAPGKERELVAAISRGVGGKNYADSVKGRFTISRDNAKNTVYLQMNSLIPEDTAVYYCAAQTLRWSHYYYWGQGTQVTVSS	high polyreactivity
QVQLVESGGGLVQAGGSLRLSCAASGSTFYPYAMGWYRQAPGKERELVAAIRFSGASTYYADSVKGRFTISRDNAKNTVYLQMNSLKPEDTAVYYCAARYVYSWPYRYGYWGQGTQVTVSS	low polyreactivity
QVQLVESGGGLVQAGGSLRLSCAASGSISFLYTMGWYRQAPGKERELVAAITGSTASTYYADSVKGRFTISRDNAKNTVYLQMNSLKPEDTAVYYCNADSYPGLNPDFDYWGQGTQVTVSS	low polyreactivity
QVQLVESGVGLVQARGSLRLSSAASGRIFDRNAMGWYRQSPGNERELVAAIDDSGGDTSYADSVKGRFTISRDNAKNTVYLQMTSLKPEDTAVYYCNAVKQRSSIFDYWGQGTQLTVSS	low polyreactivity
